Residue numbers refer to the chain shown, from its start. Names and notes keep the numbering of the source.

First the molecules themselves.
T1: FcgRIIaH (human, UniProt P12318 34-217)
T1 construct: extracellular domain; Soluble extracellular domain with C-terminal His tag; also called FcγRIIa H; FcγRIIa type H; not shown: His tag attached to the C terminus
T1 sequence (looked up): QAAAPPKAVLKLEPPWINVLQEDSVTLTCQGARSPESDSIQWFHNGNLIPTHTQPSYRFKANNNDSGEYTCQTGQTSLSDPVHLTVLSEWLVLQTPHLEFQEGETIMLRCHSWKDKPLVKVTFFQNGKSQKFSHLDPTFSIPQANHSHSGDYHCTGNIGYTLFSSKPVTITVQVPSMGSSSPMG

T2: FcgRIIb (human, UniProt P31994 43-217)
T2 construct: extracellular domain; Soluble extracellular domain with C-terminal His tag; also called FcγRIIb; CD32B; not shown: His tag attached to the C terminus
T2 sequence (looked up): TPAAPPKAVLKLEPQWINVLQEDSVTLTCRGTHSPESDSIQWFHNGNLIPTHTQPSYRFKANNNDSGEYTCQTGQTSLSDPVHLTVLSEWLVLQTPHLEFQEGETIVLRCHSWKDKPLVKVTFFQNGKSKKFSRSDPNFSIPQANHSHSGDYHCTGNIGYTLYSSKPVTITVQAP

T3: FcgRIIaR (human, UniProt P12318 34-217)
T3 construct: extracellular domain; Soluble extracellular domain with C-terminal His tag; also called FcγRIIa R; FcγRIIa type R; not shown: His tag attached to the C terminus
T3 sequence (looked up): T1 sequence (looked up) with H134R

B1: H240-Kn120/H240-Hl068/L73-k0 (antibody, human IgG1, kappa)
heavy 1: QDQLVQSGAEVKKPGASVKVSCKASGFNIKDTYIQWVRQAPGQGLEWMGRIDPLRKQTKYREKFEGRVTITADTSTNTAYMELSSLRSEDTAVYYCVRSGREFDYWGQGTLVTVSSASTKGPSVFPLAPSSKSTSGGTAALGCLVKDYFPEPVTVSWNSGALTSGVHTFPAVLQSSGLYSLSSVVTVPSSSLGTQTYICNVNHKPSNTKVDKKVEPKSCDKTHTCPPCPAPEYYWGPMVFLFPPKPKDTLMISRTPEVTCVVVDVSDEDPEVKFNWYVDGVEVHNAKTKPREEQYNATYRVVSVLTVLHQDWLNGKEYKCKVSNKDLPAPIEKTISKAKGQPREPQVCTLPPSRDELTKNQVSLWCLVKGFYPSDIAVEWESNGQPENNYKTTPPVLDSDGSFFLYSKLTVDKSRWQQGNVFSCSVMHEALHNHYTQKSLSLSP
heavy 2: QDQLVQSGAEVKKPGASVKVSCKASGFNIKDTYIQWVRQAPGQGLEWMGRIDPLRKQTKYREKFEGRVTITADTSTNTAYMELSSLRSEDTAVYYCVRSGREFDYWGQGTLVTVSSASTKGPSVFPLAPSSKSTSGGTAALGCLVKDYFPEPVTVSWNSGALTSGVHTFPAVLQSSGLYSLSSVVTVPSSSLGTQTYICNVNHKPSNTKVDKKVEPKSCDKTHTCPPCPAPELLGGPSVFLFPPKPKDTLMISRTPEVTCVVVDVSHEEPEVKFNWYVDGVEVHNAKTKPREEQYNSTYRVVSVLTVLHQDWLNGKEYKCKVSNDALPKPIEETISKAKGQPREPQVYTLPPSRCELTKNQVSLSCAVKGFYPSDIAVEWESNGQPENNYKTTPPVLDSDGSFFLVSKLTVDKSRWQQGNVFSCSVMHEALHNHYTQKSLSLSP
light: DIQMTQSPSSLSASVGDRVTITCRASQDIHKYIAWYQQKPGQAPRLLIQYTSTLQPGVPSRFSGSGSGTDYTFTISSLQPEDIATYYCLQYEQLRTFGGGTKVEIKRTVAAPSVFIFPPSDEQLKSGTASVVCLLNNFYPREAKVQWKVDNALQSGNSQESVTEQDSKDSTYSLSSTLTLSKADYEKHKVYACEVTHQGLSSPVTKSFNRGEC
notes: Heterodimerized anti-epiregulin IgG1 antibody (knobs-into-holes); also called H240-Kn120/H240-HI068/L73-k0
B2: H240-Kn138/H240-Hl068/L73-k0 (antibody, human IgG1, kappa)
heavy 1: B1 heavy 1 with L327W
heavy 2: B1 heavy 2
light: B1 light
notes: Heterodimerized anti-epiregulin IgG1 antibody; L328W introduced into H240-Kn120; also called H240-Kn138/H240-HI068/L73-k0
B3: H240-Kn120/H240-Hl150/L73-k0 (antibody, human IgG1, kappa)
heavy 1: B1 heavy 1
heavy 2: B1 heavy 2 with I331T
light: B1 light
notes: Heterodimerized anti-epiregulin IgG1 antibody; I332T introduced into H240-Hl068; also called H240-Kn120/H240-HI150/L73-k0
B4: H240-Kn120/H240-Hl170/L73-k0 (antibody, human IgG1, kappa)
heavy 1: B1 heavy 1
heavy 2: B1 heavy 2 with L327A
light: B1 light
notes: Heterodimerized anti-epiregulin IgG1 antibody; L328A introduced into H240-Hl068; also called H240-Kn120/H240-HI170/L73-k0
B5: H240-Kn138/H240-Hl147/L73-k0 (antibody, human IgG1, kappa)
heavy 1: B1 heavy 1 with L327W
heavy 2: B1 heavy 2 with L327W
light: B1 light
notes: Anti-epiregulin IgG1 antibody; L328W introduced into both H chains of H240-Kn120/H240-Hl068/L73-k0; also called H240-Kn138/H240-HI147/L73-k0
B6: H240-Kn120/H240-Hl182/L73-k0 (antibody, human IgG1, kappa)
heavy 1: B1 heavy 1
heavy 2: B1 heavy 2 with A230H
light: B1 light
notes: Heterodimerized anti-epiregulin IgG1 antibody; A231H introduced into H240-Hl068; also called H240-Kn120/H240-HI182/L73-k0
B7: H240-Kn120/H240-Hl174/L73-k0 (antibody, human IgG1, kappa)
heavy 1: B1 heavy 1
heavy 2: B1 heavy 2 with I331E
light: B1 light
notes: Heterodimerized anti-epiregulin IgG1 antibody; I332E introduced into H240-Hl068; also called H240-Kn120/H240-HI174/L73-k0

T5 sequence (P12314 16-292): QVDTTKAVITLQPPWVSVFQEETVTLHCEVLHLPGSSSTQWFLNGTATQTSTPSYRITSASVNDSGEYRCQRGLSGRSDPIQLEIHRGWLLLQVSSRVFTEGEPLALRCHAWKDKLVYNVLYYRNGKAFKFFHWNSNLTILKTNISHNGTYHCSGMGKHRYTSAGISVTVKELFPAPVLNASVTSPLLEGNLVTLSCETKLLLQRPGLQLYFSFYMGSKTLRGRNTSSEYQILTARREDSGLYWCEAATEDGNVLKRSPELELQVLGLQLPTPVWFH

In the first assay the target is T4, FcgRIIIaV (human, UniProt P08637 17-208).
T4 construct: extracellular domain; Soluble extracellular domain with C-terminal His tag; polymorphic site made after J. Clin. Invest; also called FcγRIIIa V; not shown: His tag attached to the C terminus
T4 sequence (P08637 17-208 F176V limits assumed): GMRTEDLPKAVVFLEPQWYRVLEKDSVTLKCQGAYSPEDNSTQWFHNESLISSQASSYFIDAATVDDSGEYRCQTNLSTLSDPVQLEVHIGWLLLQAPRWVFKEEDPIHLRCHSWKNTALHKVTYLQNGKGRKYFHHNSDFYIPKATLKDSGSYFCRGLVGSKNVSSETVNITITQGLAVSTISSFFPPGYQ
Put plainly: SPR (Biacore); KD of H240-Kn120/H240-Hl068/L73-k0 divided by KD of this antibody. The procedure:
(§1) Analysis of interaction between obj ective antibody and the FcγR was carried out using Biacore T100 (GE Healthcare), Biacore T200, Biacore A100, and Biacore 4000.
On the technique in general: SPR reads the build-up and loss of mass on a sensor chip optically.
With B1, the “Relative KD” value was 1.

Turning to B2, the “Relative KD” value was determined as 0.8.

As for B3, the “Relative KD” value is 0.6.

B4: the “Relative KD” value came to 0.4.

As to B5, the “Relative KD” value came to 0.

Consider B6, for which the “Relative KD” value worked out at 1.2.

Take B7: the “Relative KD” value was 10.

Another assay addresses T5, FcgRIa (human, UniProt P12314 16-292).
T5 construct: extracellular domain; Soluble extracellular domain with C-terminal His tag, expressed in FreeStyle293 cells; also called FcγRIa; FcγRI; not shown: His tag attached to the C terminus
The assay is described as above. The procedure: as §1
As for B1, the “Relative KD” value was 1.

Regarding B2, the “Relative KD” value came out at 1.

For B3, the “Relative KD” value turned out to be 0.4.

In the case of B4, the “Relative KD” value was found to be 0.8.

As for B5, the “Relative KD” value turned out to be 0.5.

For B6, the “Relative KD” value was found to be 0.9.

Turning to B7, the “Relative KD” value came to 1.1.

The next assay addresses T1, FcgRIIaH. The description is as above. The method, then:
as §1
Take B1: the “Relative KD” value was 1.

As to B2, the “Relative KD” value came out at 1.6.

B3: the “Relative KD” value turned out to be 1.2.

On to B4, for which the “Relative KD” value came out at 2.3.

Turning to B5, the “Relative KD” value is 0.3.

On to B6, for which the “Relative KD” value was found to be 0.5.

Regarding B7, the “Relative KD” value amounted to 0.7.

The next assay concerns the target T2, FcgRIIb. The assay is described as above. The method, then:
as §1
On to B1, for which the “Relative KD” value was 1.

For the molecule B2, the “Relative KD” value is 1.2.

On to B3, for which the “Relative KD” value was determined as 1.5.

With B4, the “Relative KD” value was 2.2.

Regarding B5, the “Relative KD” value worked out at 1.4.

For the molecule B6, the “Relative KD” value came out at 0.6.

As to B7, the “Relative KD” value came to 1.2.

In a further assay the target is T3, FcgRIIaR. Described as above. The procedure: as §1
As for B1, the “Relative KD” value amounted to 1.

For B2, the “Relative KD” value turned out to be 1.1.

Consider B3, for which the “Relative KD” value stood at 1.

Take B4: the “Relative KD” value was found to be 2.3.

Regarding B5, the “Relative KD” value was 1.8.

Consider B6, for which the “Relative KD” value worked out at 0.5.

Regarding B7, the “Relative KD” value is 0.7.

The target of the next assay is T6, FcgRIIIaF (human, UniProt P08637 17-208).
T6 construct: extracellular domain; Soluble extracellular domain with C-terminal His tag; polymorphic site made after J. Clin. Invest; also called FcγRIIIa F; not shown: His tag attached to the C terminus
T6 sequence (P08637 17-208): as the sequence (P08637 17-208 F176V limits assumed) above, with V160F counted along it
The description is as above. The method, then: as §1
Take B1: the “Relative KD” value was found to be 1.

For B2, the “Relative KD” value is 0.6.

B3: the “Relative KD” value was 0.7.

For B4, the “Relative KD” value turned out to be 0.6.

In the case of B5, the “Relative KD” value was found to be 0.1.

For the molecule B6, the “Relative KD” value turned out to be 0.7.

With B7, the “Relative KD” value amounted to 4.3.

The target of a further assay is T4, FcgRIIIaV. In words: SPR (Biacore), antibody captured, FcgR as analyte. The procedure:
(§2) Analysis of interaction between obj ective antibody and the FcγR was carried out using Biacore T100 (GE Healthcare), Biacore T200, Biacore A100, and Biacore 4000. HBS-EP+ (GE Healthcare) was used as the running buffer, and the measurement temperature was set to 25° C. Chips produced by immobilizing the antigen peptide by the amine coupling method to a Series S sensor Chip CM5 (GE Healthcare), chips produced by allowing preliminarily biotinylated antigen peptides to interact with and immobilize onto a Series S Sensor Chip SA (certified) (GE Healthcare), chips produced by immobilizing Protein L (ACTIGEN, BioVision) to Series S Sencor Chip CM5 (GE Healthcare), or chips produced by immobilizing Protein A/G (Thermo Scientific) to Series S Sencor Chip CM5 (GE Healthcare) were used. Antibodies of interest were captured onto these chips, and allowed to interact to each FcγR diluted with running buffer. To regenerate and repeatedly use the chip, the antibodies captured onto the chip were washed off by reacting 10 mM glycine-HCl, pH 1.5.
What is called Kd is the equilibrium constant for the complex coming apart. In turn, B1 returned a Kd of 0.36 nM.

With B2, the Kd turned out to be 0.43 nM.

B3 returned a Kd of 0.57 nM. This Kd and that of the molecule before are within 1.5-fold of each other.

For B4, binding was put at a Kd of 0.93 nM.

B5 returned a Kd of 16 nM.

Take B6: the Kd is 0.29 nM.

B7 registered a Kd of 0.036 nM.

A further assay concerns the target T5, FcgRIa. In words: SPR (Biacore), antibody captured, FcgR as analyte. The procedure: as §2
Molecule B1 gave a Kd of 0.16 nM.

As to B2, the Kd was 0.16 nM.

In turn, B3 displayed a Kd of 0.39 nM. This Kd lies about 2.4-fold higher than the previous one.

Take B4: binding was put at a Kd of 0.19 nM.

The molecule B5 had a Kd of 0.31 nM.

B6: the Kd is 0.18 nM.

B7 showed a Kd of 0.14 nM.

Another assay concerns the target T1, FcgRIIaH. In words: SPR (Biacore), antibody captured, FcgR as analyte. The procedure: as §2
In the case of B1, binding was characterised by a dissociation constant (Kd) of 41 nM.

With B2, the equilibrium dissociation constant (Kd) was 25 nM.

Turning to B3, the affinity, expressed as Kd, was 35 nM.

Molecule B4 displayed a Kd of 18 nM.

In turn, B5 displayed a Kd of 130 nM.

The molecule B6 came in with a Kd of 77 nM.

Regarding B7, the Kd was determined as 55 nM. The Kd values of the last two molecules are within 1.5-fold of each other.

For another assay, the target named is T2, FcgRIIb. In words: SPR (Biacore), antibody captured, FcgR as analyte. The procedure: as §2
In the case of B1, the Kd is 150 nM.

Turning to B2, the affinity, expressed as Kd, was 130 nM.

B3: the Kd is 98 nM. The Kd values of the last two molecules are within 1.5-fold of each other.

The molecule B4 showed a Kd of 67 nM.

In turn, B5 displayed a Kd of 110 nM.

Molecule B6 had a Kd of 240 nM.

Molecule B7 had a Kd of 130 nM.

In another assay the target is T3, FcgRIIaR. In words: SPR (Biacore), antibody captured, FcgR as analyte. The procedure:
as §2
B1 yielded a Kd of 20 nM.

Regarding B2, the Kd was determined as 19 nM.

Molecule B3 showed a Kd of 20 nM.

In turn, B4 gave a Kd of 8.6 nM.

B5 registered a Kd of 11 nM.

In the case of B6, the Kd was 40 nM. This Kd lies about 3.6-fold higher than the previous one.

As to B7, the Kd was determined as 30 nM.

Another assay deals with T6, FcgRIIIaF. Put plainly: SPR (Biacore), antibody captured, FcgR as analyte. The method, then:
as §2
B1 displayed a Kd of 2.2 nM.

Molecule B2 showed a Kd of 3.7 nM.

Regarding B3, the Kd is 3 nM.

B4 came in with a Kd of 3.9 nM. The Kd values of the last two molecules are within 1.5-fold of each other.

Consider B5, for which the Kd amounted to 22 nM.

The molecule B6 registered a Kd of 3.1 nM.

The molecule B7 came in with a Kd of 0.51 nM.

The values are drawn from patent US20180155451A1 (published 2018).
